Data on 4 molecules can be found in publication PMC10630626 (2023).

Holding throughout (assay): SPR
One test has as its target Palivizumab.
For test [1], the target named is Palivizumab single-chain variable fragment, heavy-light order, fused to IgG1 Fc (P^scFvHLFc).
In test [2] the target is Palivizumab single-chain variable fragment, light-heavy order, fused to IgG1 Fc (P^scFvLHFc).
Chain of Palivizumab single-chain variable fragment, light-heavy order, fused to IgG1 Fc (P^scFvLHFc) (chain, as listed by the source, chain 1 of 2): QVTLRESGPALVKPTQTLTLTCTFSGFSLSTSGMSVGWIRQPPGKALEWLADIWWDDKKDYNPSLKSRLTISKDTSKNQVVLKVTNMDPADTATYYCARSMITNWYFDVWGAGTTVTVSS
Chain of Palivizumab single-chain variable fragment, light-heavy order, fused to IgG1 Fc (P^scFvLHFc) (chain, as listed by the source, chain 2 of 2): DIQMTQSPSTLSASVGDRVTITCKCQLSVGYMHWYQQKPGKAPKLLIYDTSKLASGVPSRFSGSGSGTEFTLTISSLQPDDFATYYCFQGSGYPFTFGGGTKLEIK

Chain of Palivizumab (VH, as listed by the source, chain 1 of 2): as the sequence (chain, as listed by the source, chain 1 of 2) above
Chain of Palivizumab (VL, as listed by the source, chain 2 of 2): as the sequence (chain, as listed by the source, chain 2 of 2) above
Chain of Palivizumab single-chain variable fragment, heavy-light order, fused to IgG1 Fc (P^scFvHLFc) (chain, as listed by the source, chain 1 of 2): as the sequence (chain, as listed by the source, chain 1 of 2) above
Chain of Palivizumab single-chain variable fragment, heavy-light order, fused to IgG1 Fc (P^scFvHLFc) (chain, as listed by the source, chain 2 of 2): as the sequence (chain, as listed by the source, chain 2 of 2) above

B1: anti-idiotypic nanobody for Palivizumab 2 (AIP2^VHH), soluble (VHH)
VHH: DVQLQESGGGLVQAGGSLRLSCAASESLFRLNAMGWYRQAPGKQRELVAGITTSGDAVYADSVKGRFTISRDSAKNTVYLQTNNLKPEDTAVYYCNVRPRAGTWENARIGVWGQGTQVTVSS
In general, koff refers to the rate constant with which the complex falls apart. A higher koff goes with a short-lived complex. On to B1, for which the koff with Palivizumab is 0.000733 s⁻¹.

B2: anti-idiotypic nanobody for Palivizumab 3 (AIP3^VHH), soluble (VHH)
VHH: DVQLQESGGGLVQPGGSLRLSCVASGRTWSIYAMGWFRQAPGKEREFVTAISISRSESVTHYAESVTGRFTISRDNAKNTLHLQMNSLKPEDTAVYFCAADRRSIDPHHTIDYWGQGTQVTVSS
With B2, the off-rate constant (koff) with Palivizumab came out at 0.00308 s⁻¹.

B3: anti-idiotypic nanobody for Palivizumab 4 (AIP4^VHH), soluble (VHH)
VHH: DVQLQESGGGLVQAGGSLRLSCVASGRAFSRYDMGWFRQAPGKEREFVAQISWRGGSATSYADTVKGRFTIARDNAKNTVYLQMNSLKPEDTAVYYCNARTPTLSSWGQGTQVTVSS
Take B3: the koff with Palivizumab is 0.0148 s⁻¹.

B4: anti-idiotypic nanobody for Palivizumab 1 (AIP1^VHH), soluble (VHH)
VHH: DVQLQESGGGLVQAGGSLRLSCVASGLTFRYDMGWFRQAPGKEREFVAQITWRGGSATYYADSVKGRFTIARDIAKNAVYLQMNSLKPEDTAVYYCAAAYGSAGYRPDEYDSWGQGTQVTVSS
Take B4: the koff is 6.56e-05 s⁻¹ in test [1] and 4.2e-05 s⁻¹ in test [2].
